{
  "source": "patent US20220002363A1",
  "about": "“COMPOSITIONS AND METHODS FOR TREATING PULMONARY DISEASE” (United States Government As Represented By The Department …, priority 2020, published 2022)",
  "molecules": {"B1": {"name": "mut-sFasL: mutant sFasL molecule in which 8 charged amino acids in the 26 amino acid stalk region were changed to alanine (protein)", "chain": "QLFALQAALAALAASTSQMATASSLAKQIGHPSPPPEKKELRKVAHLTGKSNSRSMPLEWEDTYGIVLLSGVKYKKGGLVINETGLYFVYSKVYFRGQSCNNLPLSHKVYMRNSKYPQDLVMMEGKMMSYCTTGQMWARSSYLGAVFNLTSADHLYVNVSELSLVNFEESQTFFGLYKL"}},
  "key": {"recombinant human Fas": {"biological_target": "T1, recombinant human Fas (Homo sapiens, UniProt P25445)", "T1 construct": "recombinant human soluble Fas receptors (PeproTech, Rocky Hill, N.J.); purchased PeproTech", "T1 sequence (P25445 26-173 limits assumed)": "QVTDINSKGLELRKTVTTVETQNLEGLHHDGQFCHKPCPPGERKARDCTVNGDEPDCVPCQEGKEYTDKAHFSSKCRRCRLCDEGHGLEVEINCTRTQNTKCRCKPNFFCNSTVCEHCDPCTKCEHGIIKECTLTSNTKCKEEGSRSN", "experiment": "Competition assay: binding of biotinylated WT sFasL to plate-coated recombinant human Fas", "details": "biotinylated WT-sFasL 70 ng/mL, Fas coated at 250 ng/mL, serial 3-fold dilutions", "method": "The mixtures were incubated for 2 hours in 96-well plates pre-coated with recombinant hsFas (250 ng/ml). After washing unbound material, biotin was detected using HRP conjugated Streptavidin. […] The sFasL bound to Fas was detected using polyclonal anti-human FasL antibodies. […] Different molar ratios of the Fas-activating antibody CH-11 and mut-sFasL were added, and caspase 3/7 activity measured after 5 hours. […] Data represent the results from three separate experiments, each done in duplicate, and were analyzed by 2-way ANOVA with Sidak's post hoc analysis. […] Each dot represents individual data; lines represent means±SD. *=P<0.05; **=P<0.01, ***P<0.001.\nAntibodies and Reagents. […] FLAG tagged mut-sFasL was detected using HRP anti-FLAG monoclonal antibody (Sigma-Aldrich, Cat #A85920). […]\nWT-sFasL inhibition occurs prior to receptor binding. […] Recombinant human Fas at 250 ng/mL were coated and the binding of a fixed concentration of biotinylated WT-sFasL (70 ng/mL) were measured in the presence of serial 3-fold dilutions of either WT-sFasL or mut-sFasL. […] Serial dilutions of either WT-sFasL or mut-sFasL were incubated in wells coated with recombinant human Fas, 5 μg/mL, and after washing, detected sFasL bound to Fas using polyclonal anti-FasL antibodies. […]"}, "WT-sFasL": {"biological_target": "T2, WT-sFasL (Homo sapiens, UniProt P48023)", "T2 construct": "made in house", "T2 sequence (P48023 103-281)": "B1 chain with A4H, A7K, A8E, A11E, A13R, A14E, A20H, A26E", "experiment": "Attenuation of WT-sFasL-induced caspase 3/7 activity in Jurkat cells by molar mixtures of WT and mut-sFasL", "format": "cell-based", "details": "serial dilutions of mut sFasL", "method": "FIGS. 2A-D show the mut-sFasL has inhibitory properties. Highly Fas-sensitive Jurkat cells (FIG. 2A), primary human lung small airway epithelial cells (SAEC, FIG. 2B) or murine lung epithelial cells (LA4, FIG. 2D) were incubated with serial dilutions of mutated FasL, (mut sFasL). […] As a confirmatory test, the experiment was repeated using SAEC and an annexin-V translocation assay (FIG. 2C). WT=wild type (no mutant). […] Each dot represents individual data; lines represent means±SD. *=P<0.05; **=P<0.01, ***P<0.001 when compared to WT. One way ANOVA with SIdak's post hoc analysis.\nMethods. Cells and cell culture. To test Fas responses in vitro, the highly-Fas sensitive cell line, Jurak, was used. […]\nMeasurements of apoptotic cascade activation. Apoptotic cascade activation was assessed by determining caspase 3/7 activity and Annexin V externalization. Caspase-3/7 activity was measured using a commercial substrate (Caspase-Glo 3/7 Assay, Promega, Madison, Wis., Cat #G8090) following manufacturer's instructions. Annexin V was measured with a luminescent commercial assay that allows for measurement of annexin V externalization in adherent cells (RealTime-Glo Annexin V assay, Promega, Madison, Wis., Cat #JA1011). Luminescence was measured with a Synergy H4 Microplate Reader (BioTek, Winooski, Vt.). […]"}},
  "note": "Positions count from the first letter of the chain named.",
  "data": [
    {"molecule": "B1", "values": [
      {"measurement": "effect of increasing competitor concentration on binding of biotinylated WT-sFasL to Fas", "setting": "recombinant human Fas", "result": "little effect on binding of biotinylated WT-sFasL, except at very high doses"},
      {"measurement": "inhibition of wild type sFasL activity (caspase 3/7)", "setting": "WT-sFasL", "result": "dose-dependent inhibition of wild type sFasL activity"}
    ]}
  ]
}
